Substance: purified p38 proteins activated by incubation with active Zap70
- phosphorylation of ATF2 (in vitro kinase assay, [32P]ATP, phosphorimager) ((11R)-71-85): incubation with (11R)-71-85, but not (11R)-Ctrl, led to a decrease in phosphorylation of ATF2. In addition, the decrease in ATF2 phosphorylation was dependent on the dose of (11R)-71-85
- phosphorylation of ATF2 (in vitro kinase assay, [32P]ATP, phosphorimager) ((11R)-Ctrl): incubation with (11R)-71-85, but not (11R)-Ctrl, led to a decrease in phosphorylation of ATF2

From patent publication US20160083442
